Patent US12715905B2, “Methods of characterizing and purifying VEGF receptor fusion protein” (Regeneron Pharmaceuticals, Inc., priority 2023, dated 2026)
Where a SMILES comes first, the peptide text is derived from it. [ ]: non-standard residue; d: D form. The star is where a group is joined. Sta = CC(C)C[C@H](N)[C@@H](O)CC(=O)O; Isovaleryl = CC(C)CC(=O)*

Legend:
cathepsin D [1] = assay: Protease inhibitor confirmation study: pepstatin A added to DSI samples, NR-1 band and Y/L clipping; assay type: biochemical, Chinese hamster; conditions: DSI samples from both facilities, pepstatin A added at 37° C., assessed at day 3 and day 5
Experimental: Once cathepsin D was identified to be a potential reason for the cleavage of aflibercept, a cathepsin D inhibitor was used to confirm the finding. AEBSF and Aprotinin bovine lung (serine protease inhibitors), E64 and Leupeptin hemisulfate (cysteine protease inhibitors) and pepstatin A (an aspartic protease inhibitor) were evaluated for their ability to inhibit activity of cathepsin D.
To the samples from lots from both the facilities containing DSI at t=0, pepstatin A was added at 37° C. and % of NR-1 band formed was assessed at day 3 and day 5.

cathepsin D [2] = assay: Stability observation in presence and absence of inhibitor pepstatin A (SE-UPLC HMW, CE-SDS NR1); assay type: physicochemical, Chinese hamster
Experimental: Formulated Drug Substance with high (pre-optimization) and low (post-optimization) cathepsin D were blended to achieve various levels of cathD (FIG. 35B). These mixtures were prepared to compare to cathepsin D levels below, at, and above the highest known levels that were observed post-optimized IVT and had acceptable stability performance. The blended material was put on 25° C. stability observation in both the presence and absence of the inhibitor pepstatin A (FIG. 35A).
The Drug Substance Intermediate from two Lots was placed on stability observation at 25° C. in the presence (open triangle) and absence (closed triangle) of the inhibitor pepstatin A for 6 months (FIG. 36).
Samples were placed on 25° C. and 5° C. stability observation in the presence and absence of cathepsin D inhibitor. HMW formation was analyzed by SE-UPLC and NR1 formation was analyzed by CE-SDS.

cathepsin D [3] = assay: Cathepsin D spike-in into aflibercept DS, Y92L93 clipping / NR-1 band; assay type: physicochemical, Chinese hamster
Experimental: Production of the Y92L93 clipping was attempted using cathepsin D. To a sample of aflibercept DS, cathepsin D was added and incubated at 37° C. at pH 6.1. Different concentrations of cathepsin D were evaluated, including 1 ppm, 2 ppm, 5 ppm, and 10 ppm.
Since the failure of cathepsin D to affect the truncation could be due to reaction conditions, the experiment was repeated at a lower pH since cathepsin D needs to be activated by lower pH for conformational switch to mature cathepsin D. Cathepsin-D is an aspartic protease that depends critically on protonation of its active site Asp residue. Along with Asp-protonation, lower pH also leads to conformational switch in mature cathepsin-D. See Briozzo P et al. (1988). Cancer Research. 48 (13): 3688-92.
To test the DS samples with the presence of activated cathepsin D, to a sample from DS at t=0, 100 ppm acidified cathepsin D was added at 37° C. and incubated for 5 hours.
The clipping activity was also observed at neutral condition when acidified […]) was added.
Target sequence in this assay (as listed by the source): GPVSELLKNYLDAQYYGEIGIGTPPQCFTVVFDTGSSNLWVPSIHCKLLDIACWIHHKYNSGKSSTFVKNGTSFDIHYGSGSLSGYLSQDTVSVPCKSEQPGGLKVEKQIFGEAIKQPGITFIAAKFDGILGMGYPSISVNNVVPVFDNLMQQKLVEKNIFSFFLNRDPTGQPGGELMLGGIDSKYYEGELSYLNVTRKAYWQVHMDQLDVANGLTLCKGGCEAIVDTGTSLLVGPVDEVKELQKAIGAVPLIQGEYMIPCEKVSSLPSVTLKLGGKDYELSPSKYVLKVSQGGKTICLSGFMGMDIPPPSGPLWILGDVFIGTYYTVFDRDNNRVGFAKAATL

cathepsin D [4] = assay: Impact of pH on NR-1 band formation in DSI incubated at 37° C.; assay type: physicochemical, Chinese hamster
Experimental: Testing of DSI samples from both facilities A and B for aflibercept production also show similar results.
The impact of pH is so significant that use of different buffers can also show a difference in the Y92L93 clipping observed during the production of aflibercept. For example, citric acid was employed at facility B to achieve a pH of 6.1 and sodium citrate was employed at facility A to achieve a pH of 6.2, despite other conditions remaining the same (i.e., incubation of DSI at 37° C. for 12 days, intermediate time point taken at 3rd and 6th day). While the difference in the pH is 0.1, the effect through cathepsin D based clipping is notable over time (data not shown).
All samples were incubated at 37° C. for 12 days, intermediate time point taken at 3rd and 6th day.
Target sequence in this assay (G3I4W7 65-408 limits assumed): as the sequence (as listed by the source) above

[5] = Stability study of aflibercept lots at 5° C. and 25° C. (CE-SDS, SE-UPLC); assay type: physicochemical
Experimental: This study investigated how a residual HCP can piggy-back through the aflibercept DSI manufacturing process.
Drug substance intermediate (DSI) lots containing aflibercept at two different concentrations (40 mg/ml and 114.3 mg/ml) were evaluated at 5° C. and 25° C.
Using the modified SEC purification, the high concentration DSI lot was purified downstream using SEC. […] (as mentioned in Example 10).
An earlier cut in time for the eluting peak was implemented for the SEC step for the higher concentration DSI lots (FIG. 28) resulting in increased clearance and subsequently lower levels of cathepsin D at FDS (FIG. 29). […] Accelerated stability (25′C for 6 months) was investigated. The cumulative increase in HMW (FIG. 33A) and R1 (FIG. 33B) was represented over that 6 months by calculation of the slope. […] The DSI was analyzed for stability at 25° C. for 6 months. The rate of NR1 species was calculated from T0 to T6 months and plotted against the cathepsin D value obtained by ELISA (FIG. 34A), Activity Assay (FIG. 34B) and Mass Spectrometry (FIG. 34C).

[6] = Mass spectrometry analysis of Y92/L93 clipping in stability lots; assay type: physicochemical; conditions: high concentration (114.3 mg/mL) lot vs low concentration lots, accelerated stability
Experimental: The analysis was performed by denaturing SEC-MS, which can provide (partial) liquid chromatography separation between the intact receptor domain and NR1 species (with Fc removed) for the successful detection of the low levels of NR1 species. The DS and DSI sample from lots A and B were analyzed using a modified mass analysis (samples 1-7 are representative of both DS and DSI samples from both the lots). The modification made is possible to differentiate the peaks of the receptor domain of aflibercept and truncated aflibercept.
Mass spectrometry analysis further confirmed (3.4×) higher levels of Y92/L93 clipping for the unexpected aflibercept high concentration lot when compared to […] clipping observed for low concentration lots (FIG. 18). Increased NR1 due to cathepsin D cleavage at Y92/L93 of aflibercept was linked to increased aggregate formation (FIG. 19 and FIG. 20).

cathepsin D [7] = assay: Octet HTX interaction analysis of aflibercept and cathepsin D; assay type: binding, Chinese hamster
Experimental: FIG. 31 […], wherein cathepsin D was immobilized to the biosensor, while VEGF-Trap was the analyte (A), according to an exemplary embodiment.
Interaction analysis was carried out using OCTET HTX sensorgram.
Since cathepsin D can “piggy back” onto aflibercept during purification of aflibercept, in order to reduce the interactions, use of surfactants was implemented.
Target sequence in this assay (G3I4W7 entry or part of it F138E): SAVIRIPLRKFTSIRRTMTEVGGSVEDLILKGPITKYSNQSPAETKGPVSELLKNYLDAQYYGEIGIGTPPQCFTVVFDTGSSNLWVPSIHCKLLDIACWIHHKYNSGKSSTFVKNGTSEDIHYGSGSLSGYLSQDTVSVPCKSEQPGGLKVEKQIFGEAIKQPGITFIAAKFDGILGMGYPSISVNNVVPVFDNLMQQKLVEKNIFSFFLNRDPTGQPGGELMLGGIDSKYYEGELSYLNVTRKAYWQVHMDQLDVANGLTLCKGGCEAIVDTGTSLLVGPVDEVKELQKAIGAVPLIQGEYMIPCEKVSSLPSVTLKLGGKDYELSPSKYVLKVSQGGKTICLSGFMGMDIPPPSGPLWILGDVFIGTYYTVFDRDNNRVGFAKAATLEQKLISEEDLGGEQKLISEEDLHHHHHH

[8] = DSI from two lots, 25° C., 6 months, pepstatin A present vs absent

Row | Compound | NR-1 band formation (cathepsin D [1]) | Y/L clipping (cathepsin D [1]) | HMW formation (SE-UPLC) (cathepsin D [2]; [8]) | NR1 formation (CE-SDS) (cathepsin D [2]; [8]) | Y/L clipping (cathepsin D [3]; DS at t=0, 100 ppm acidified cathepsin D, 37° C., 5 hours) | NR-1 band formation and Y/L cleavage (cathepsin D [3]; aflibercept DS, 0.5-20 ppm acidified cathepsin D, neutral condition, 7 days at 37° C.) | Y/L clipping (cathepsin D [3]; aflibercept DS, 10 ppm Cathepsin D spiked in, pH 6.1, 37° C., 8 days) | Y/L clipping (cathepsin D [3]; aflibercept DS, 100 ppm Cathepsin D spiked in, pH 6.1, 37° C., 8 days) | NR-1 band formation (cathepsin D [4]; DSI sample, pH 4.5 compared to pH 6.3) | NR-1 band formation (cathepsin D [4]; pH 6.45) | 92Y93L clipping (cathepsin D [4]; pH increased to 6.45 by adding sodium citrate, 37° C. for 12 days) | rates of aggregation and fragmentation ([5]; 114.3 mg/mL formulated drug substance (FDS) lot, accelerated stability 25° C. for 6 months) | fragmentation ([5]; 5° C. condition, through the 12-month time point) | LMW levels ([5]; FDS lots after modified SEC purification (earlier cut), 25° C. at 3 months) | levels of Y92/L93 clipping, high concentration lot compared to low concentration lots [6] | KD of aflibercept-cathepsin D interaction, change (cathepsin D [7]; about 0.003% PS20 (polysorbate 20)) | binding to Cathepsin D (cathepsin D [7]; range of VEGF-Trap concentration) | interaction between aflibercept and cathepsin D (cathepsin D [7]; range of buffer pH) | formation of NR1 (cathepsin D [2]; FDS, 5° C., inactive cathepsin D (inhibitor and/or low temperature), up to 18 months)
1 | CC(C)CC(=O)N[C@H](C(=O)N[C@H](C(=O)N[C@@H](CC(C)C)[C@@H](O)CC(=O)N[C@@H](C)C(=O)N[C@@H](CC(C)C)[C@@H](O)CC(=O)O)C(C)C)C(C)C [pepstatin A] (Isovaleryl-VV[Sta]A[Sta]-OH) | NR-1 band increase stopped | Y/L clipping ceased | reduced HMW formation | reduced NR1 formation |  |  |  |  |  |  |  |  |  |  |  |  |  |  | 
2 | aflibercept |  |  |  |  | led to Y/L clipping of aflibercept | correlation between spiked-in cathepsin D and NR-1 band formation, and Y/L cleavage | Negligible | < 1% | significant NR-1 band | Effectively no NR-1 band is formed | stopped the 92Y93L clipping | increased rates of aggregation and fragmentation | absence of fragmentation | in line with comparators | 3.4 × | about 4 fold | concentration dependent binding | increased with reducing buffer pH | no formation of NR1
